Values of other authors in US12440573B2, “Antibody-conjugates for targeting of tumours expressing PTK7” (Synaffix B.V., priority 2022, dated 2025).

How the values were obtained:
[1] = tested on: locally advanced/metastatic, PTK7-positive NSCLC, TNBC, and platinum-resistant OvCa; conditions: previously treated patients, administered every 2 or 3 weeks
[2] = tested on: patient-derived, tumor xenograft preclinical models

B1: PF-06647020: prior-art ADC: humanized anti-PTK7 antibody with auristatin microtubule inhibitor payload (Aur0101) (conjugate, chains of the INN, looked up)
VH: QVQLVQSGPEVKKPGASVKVSCKASGYTFTDYAVHWVRQAPGKRLEWIGVISTYNDYTYNNQDFKGRVTMTRDTSASTAYMELSRLRSEDTAVYYCARGNSYFYALDYWGQGTSVTVSS
VL: EIVLTQSPATLSLSPGERATLSCRASESVDSYGKSFMHWYQQKPGQAPRLLIYRASNLESGIPARFSGSGSGTDFTLTISSLEPEDFAVYYCQQSNEDPWTFGGGTKLEIK
modifications: Aur0101 auristatin payload
Q: Which clinical activity [1] does the source give for B1 here?
A: Its clinical activity is “preliminary clinical activity”.

Q: What about the safety profile [1] of the same molecule?
A: Its safety profile is “tolerable safety profile”.

Q: What about the tumor regression [2] of the same molecule?
A: The tumor regression was “prolonged tumor regression”.
